According to US20150259426A1 (Novartis, published 2015):
Changes are numbered by the printed parent chain.

Experiments:
[1] = biological target: T1, cell-bound cynomolgus DR5 (CHO-K1 cells transfected with the full length cynoDR5 gene) (cynomolgus); assay: FACS, periplasmic extract on CHO-K1 cells expressing cynomolgus DR5, anti-myc detection
T1 construct: whole, on cells

[2] = biological target: cynomolgus DR5 (construct used not stated) (cynomolgus); assay: SPR kinetics, cynomolgus DR5
[3] = biological target: T2, cynomolgus DR5-Fc fusion protein (cyno DR5 amino acids 56 to 213 fused with human IgG1 Fc) (cynomolgus; human); assay: ELISA, periplasmic extract, plate coated with cynomolgus DR5-Fc, anti-myc detection
[4] = biological target: T2, cynomolgus DR5-Fc fusion protein (cyno …); assay: SPR (Biacore), CM5 chip coated with cynomolgus DR5-Fc, 1 to 100 nM NB construct
[5] = biological target: T3, cell-bound human DR5 (Colo205 and other human cell lines) (human, UniProt O14763 56-440); assay: FACS, periplasmic extract on Colo205 cells, anti-myc detection
T3 construct: endogenous DR5 of the cell lines

[6] = biological target: T4, DR5-54 (human DR5 residues 54 to 183, gp67DR5a54-s183-PH) (human, UniProt O14763 54-183); assay: complex isolated by gel filtration, then crystallized
T4 construct: expressed in SF9 cells, cleaved with PreScission protease; the complex with 11H6 was treated with trypsin before crystallization

[7] = biological target: T3, cell-bound human DR5 (Colo205 and other …); assay: cell-based or functional assay
[8] = biological target: T3, cell-bound human DR5 (Colo205 and other …); assay: cell-based or functional assay; remark: listed apart in the source
[9] = biological target: T5, short (182 amino acids) human DR5-Fc fusion protein (R&D Systems, catalogue #631-T2/CF) (human, UniProt O14763 56-210); assay: SPR (Biacore), CM5 chip coated with human DR5-Fc, 1 to 100 nM NB construct
T5 construct: bought; not shown: Fc part of the bought fusion protein; not described

[10] = biological target: T6, DR5-61 (human DR5 residues 61 to 183, gp67DR5l61-s183-PH) (human); assay: complex isolated by gel filtration, then crystallized
T6 construct: expressed in SF9 cells, cleaved with PreScission protease
T6 chain: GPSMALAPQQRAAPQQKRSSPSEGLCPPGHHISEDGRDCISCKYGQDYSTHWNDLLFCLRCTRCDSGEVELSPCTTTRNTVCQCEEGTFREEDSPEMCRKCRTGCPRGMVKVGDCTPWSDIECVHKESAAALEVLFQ

[11] = biological target: T1, cell-bound cynomolgus DR5 (CHO-K1 cells …); assay: FACS saturation binding, apparent KD, cell-bound cynomolgus DR5
[12] = biological target: cynomolgus DR5 (construct used not stated) (cynomolgus); assay: SPR kinetics (Biacore), cynomolgus DR5
[13] = biological target: T3, cell-bound human DR5 (Colo205 and other …); assay: FACS saturation binding, apparent KD, cell-bound human DR5

B1: 11H6 (monomeric anti-DR5 NB construct) (VHH)
VHH: EVQLVESGGGLVQPGGSLRLSCAASGTFDKINNMGWYRQAPGKQRDLVAQITPGGITDYADSVKGRFTISRDNAKDTMYLQMNSLKPEDTAVYFCNAEILKRAYIDVYVNYWGQGTQVTVSS
notes: llama VHH; periplasmic extract or purified monovalent material from E. coli; also called 11H6 parent; wild type 11H6; not shown: C-terminal c-myc tag and (His)6 tag coded by the vector
mean count fluorescence [1]: 292 | Kd [2]: 320 nM | ABS405 nm [3]: 0.133 ABS405 nm | Kd [4]: 9200 nM | mean count fluorescence [5]: 723

B2: 11H6 hu, pAX100-11H6 (monomeric NB construct for crystallography) (VHH)
VHH: B1 VHH with V5L, A74S, D76N, M78L, K86R, F94Y, Q117L
notes: the complex with DR5-54 was treated with trypsin before crystallization
binding result [6]: binds

B3: 11H6-hu (monovalent humanized variant of 11H6) (VHH)
VHH: B1 VHH with V5L, A74S, D76N, M78L, K86R, F94Y, Q117L
notes: purified monovalent material
Kd [2]: 170 nM

B4: 10F1 tetra (tetravalent anti-DR5 NB construct) (other)
chain: EVQLVESGGGLVQPGGSLRLSCAASGFTFSRYWMYWVRQAPGKGLEWVSAINSGGGDTYYRDSVRGRFTISRDNFKNTLYLQMNSLKSEDTAVYYCAKAEGPPTFSLIRTMTVDPGAQGTQVTVSSGGGGSGGGGSGGGGSGGGGSGGGGSGGGGSGGGGSEVQLVESGGGLVQPGGSLRLSCAASGFTFSRYWMYWVRQAPGKGLEWVSAINSGGGDTYYRDSVRGRFTISRDNFKNTLYLQMNSLKSEDTAVYYCAKAEGPPTFSLIRTMTVDPGAQGTQVTVSSGGGGSGGGGSGGGGSGGGGSGGGGSGGGGSGGGGSEVQLVESGGGLVQPGGSLRLSCAASGFTFSRYWMYWVRQAPGKGLEWVSAINSGGGDTYYRDSVRGRFTISRDNFKNTLYLQMNSLKSEDTAVYYCAKAEGPPTFSLIRTMTVDPGAQGTQVTVSSGGGGSGGGGSGGGGSGGGGSGGGGSGGGGSGGGGSEVQLVESGGGLVQPGGSLRLSCAASGFTFSRYWMYWVRQAPGKGLEWVSAINSGGGDTYYRDSVRGRFTISRDNFKNTLYLQMNSLKSEDTAVYYCAKAEGPPTFSLIRTMTVDPGAQGTQVTVSS
notes: four VHH units in one chain joined by GlySer linkers; not shown: C-terminal c-myc/His6 tag from vector pAX51
EC50, caspase 3/7 in Colo205 tumor after a single dose in mice, indirect response model [7]: 0.365 ng/mg tissue | IC50, cell survival, 184A1 [8]: ≥ 20 nM | IC50, cell survival, A549 [8]: ≥ 20 nM | IC50, cell survival, ARPE-19 [8]: ≥ 20 nM | IC50, cell survival, BxPC-3 [8]: 0.003 nM | IC50, cell survival, Colo205 [8]: 0.002 nM | IC50, cell survival, H226 [8]: 0.024 nM | IC50, cell survival, H2052 [8]: 0.004 nM | IC50, cell survival, H2122 [8]: 0.001 nM | IC50, cell survival, HAAE-1 [8]: ≥ 20 nM | IC50, cell survival, Huvec [8]: ≥ 20 nM | IC50, cell survival, Jurkat [8]: 0.003 nM | IC50, cell survival, M30 [8]: ≥ 20 nM | IC50, cell survival, Malme-3 [8]: ≥ 20 nM | IC50, cell survival, MiaPaCa-2 [8]: 0.028 nM | IC50, cell survival, Molt4 [8]: 0.002 nM | IC50, cell survival, Panc-1 [8]: 0.009 nM | IC50, cell survival, WI-38 [8]: ≥ 20 nM | Kd [9]: 0.0039 nM | Kd [4]: 0.022 nM

B5: 4E6 hu, pAX111-4E6 (monomeric NB construct for crystallography) (VHH)
VHH: EVQLLESGGGLVQPGGSLRLSCAASGRTFGSIRVGWFRQAPGKGREFVSAINRNDGTTYYADSVKGRFTISRDNSKNTVYLQMNSLRPEDTAVYYCAAGLQYNRAADRVPVGAVYWGQGTLVTVSS
binding result [10]: binds

B6: 4E6-hx (monovalent; humanized FR regions of 4E6-Hu with the CDR3 of 4E6), produced in E. coli (VHH)
VHH: B5 VHH with A105S
Kd [11]: 7.1 nM | Kd [12]: 3.4 nM | Kd [13]: 0.34 nM
